± gives the standard deviation of the averaged measurements.
Test system: ATP
Assay: switch fluorescence ratio, 500 uM ATP over buffer (Cy3 cluster intensity, sum of 5 cycles each) (fold (ratio)); higher = stronger signal-on switching upon ATP binding; sequences stand for … in TCGTCGGCAGCGTCAGATGTGTATAAGAGACAGTTTTTTTTTTTTTTTTTTTTTTTTT…TC
Details: aptamer strand: ATP DNA aptamer (quencher-CACCTGGGGGAGTATTGCGGAGGAAGG + anchor), 100 nM annealed; ATP concentration: 500 uM
Summary of the method: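 Five buffer/ATP imaging cycles were run on Cy3-labelled switching-strand clusters on a modified Illumina MiSeq flow-cell, with NaOH stripping and re-annealing between cycles. In each cycle, clusters annealed to 100 nM quencher-labelled ATP aptamer were imaged in selection buffer, then after 15 min with 500 uM ATP at 22 °C. Per cluster, the fluorescence ratio is summed target-cycle over summed buffer-cycle Cy3 intensity, averaged per switch-domain sequence. Only clusters within 100-1000 RFU were kept.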
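Further: ATP exposure 15 min at 22 °C before imaging.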

| Sequence | switch fluorescence ratio |
| --- | --- |
| GGCTTATTTT | 1.0031 ± 6.6e-05 |
| AGTTGTTATT | 1.027 ± 0.0088 |
| CTGGCTAGGC | 1 ± 0.014 |
| GATTGAGAGC | 0.9928 ± 0.005 |
| ATGAGGGCGG | 0.98 ± 0.021 |
| TTCCGACGAT | 3.15 ± 2.3 |
| CTTGTCAGGG | 0.975 ± 0.021 |
| ACGAACAGCG | 1.153 ± 0.004 |
| TCACCAGGGG | 1.76 ± 0.72 |
| TCGCGCGGGT | 0.9887 ± 0.008 |
| GGTTTAGGGG | 0.985 ± 0.032 |
| CGATTACGAT | 1.01 ± 0.03 |
| AGACGGAACT | 1.08 ± 0.025 |
| TAGTGCCGGG | 1.06 ± 0.07 |
| GCAAGTTGGT | 1 ± 0.017 |
| TGGGGGCCGT | 1.02 ± 0.14 |
| AATGGCATTA | 0.984 ± 0.03 |
| TCATTATAAT | 1.006 ± 0.0062 |
| TGGTTTTACG | 1.019 ± 0.01 |
| ATGAGTGACC | 1.02 ± 0.016 |
| TTACGTTCCT | 1.5 ± 0.13 |
| TCGGCTGTAT | 1.69 ± 0.94 |
| GCATTCAGGG | 1.09 ± 0.14 |
| GTGAGGGGGC | 0.993 ± 0.1 |
| TGAGGGGGTG | 1 ± 0.029 |

| Sequence | switch fluorescence ratio |
| --- | --- |
| TAGTGGACGG | 0.986 ± 0.034 |
| AGGTTGGTTA | 0.984 ± 0.029 |
| GTTAATTAGC | 1.03 ± 0.041 |
| CATATCTGAC | 1.16 ± 0.056 |
| GCCATGTGAA | 1.004 ± 0.0084 |
| GATATTCTTT | 0.988 ± 0.018 |
| ATGTAGGTTG | 0.988 ± 0.029 |
| TTTCCCGAGG | 1.51 ± 0.55 |
| TCACGTTATG | 1.11 ± 0.026 |
| TTGTTTTGAA | 1.006 ± 0.0053 |
| ATGTTTAAGC | 1.05 ± 0.048 |
| GGTCGTCAGT | 0.986 ± 0.037 |
| AGTGTTGTAT | 1.05 ± 0.044 |
| AAGCCTTAAA | 1.06 ± 0.011 |
| CACAATATGT | 1.07 ± 0.078 |
| TTCAGAAAGG | 1 ± 0.023 |
| GGCATAATTT | 1.016 ± 0.008 |
| TGGCTGGGTA | 0.983 ± 0.043 |
| TCCTTGCTGT | 1.12 ± 0.095 |
| CAGGGTTGAG | 0.997 ± 0.014 |
| CATCGCGGAC | 3.88 ± 0.45 |
| TTTTTTGGTC | 1.03 ± 0.037 |
| AGAATGTTTC | 0.973 ± 0.021 |
| GGGTTTGAAG | 1 ± 0.025 |
| TGTTCAGACG | 1.03 ± 0.053 |

| Sequence | switch fluorescence ratio |
| --- | --- |
| TGATGGCCGA | 0.985 ± 0.019 |
| GATCAAACGG | 1 ± 0.036 |
| TCGTCGTTTG | 0.991 ± 0.01 |
| TAAGGCAATT | 1.06 ± 0.041 |
| CGGTATGTG | 1.01 ± 0.036 |
| GATTTACATA | 1.01 ± 0.019 |
| ATATAGTTCG | 0.967 ± 0.047 |
| ACGTTGAAGT | 1.01 ± 0.019 |
| CGATCCGCGG | 0.942 ± 0.14 |
| AAGCGAGGTC | 1.05 ± 0.021 |
| TCTACGGTGC | 1.5 ± 0.24 |
| TCTAATTAGT | 0.993 ± 0.013 |
| AAATTCAATA | 1.002 ± 0.0033 |
| AATTTGTTTC | 0.972 ± 0.021 |
| TATCTGTGCC | 0.96 ± 0.054 |
| GCTGTAACG | 1 ± 0.042 |
| GAACGGAAGG | 1.014 ± 0.0043 |
| CGGGTCTGTG | 0.999 ± 0.018 |
| TAAGTATAAT | 0.999 ± 0.017 |
| TGGTATAGGG | 1.01 ± 0.024 |
| GAGACGGTCT | 1.05 ± 0.025 |
| CGACTCGACG | 1.013 ± 0.006 |
| TTGCTACACG | 1.04 ± 0.02 |
| GTGGGGGGGC | 0.989 ± 0.032 |
| TCTTTACTAC | 1.08 ± 0.081 |

| Sequence | switch fluorescence ratio |
| --- | --- |
| TCTCGTTTT | 0.979 ± 0.025 |
| TTGACCTGGG | 1.1 ± 0.098 |
| TTATTAGTGA | 0.9904 ± 0.006 |
| TTAAGGGTGT | 1.02 ± 0.04 |
| GTAAATTGTG | 1.01 ± 0.047 |
| TTATGGACCT | 1.331 ± 0.0094 |
| TAGGCTAGGG | 0.9713 ± 0.0062 |
| CAACAACTTC | 1.01 ± 0.0034 |
| TCGGTGGGGA | 0.992 ± 0.087 |
| ATATGCAGGA | 0.965 ± 0.03 |
| GGGAGAATGC | 0.939 ± 0.097 |
| AGGGGGCGAG | 0.988 ± 0.018 |
| TAGGGAATAG | 1.14 ± 0.12 |
| TTAAAGATTG | 0.987 ± 0.014 |
| CGCTTTGGCG | 0.959 ± 0.061 |
| GCCCCCTTCG | 1.08 ± 0.065 |
| GACCGGACAT | 0.996 ± 0.013 |
| TTGGACGGTA | 1.06 ± 0.1 |
| GGATGAAAG | 0.99 ± 0.014 |
| GACATGATGT | 1.032 ± 0.0063 |
| GTTGTATCGG | 0.991 ± 0.021 |
| TGCCTCGGGG | 1.042 ± 0.0049 |
| CCATATGT | 0.985 ± 0.028 |
| AGTTATGTTT | 0.956 ± 0.051 |
| ACCTTCGGGT | 1.03 ± 0.028 |

— the supplement of paper PMC10126150
